According to patent publication US20120276102A1 (Pfizer, published 2012):

Key:
[1] = biological target: T1, human complement component C1q (human, UniProt P02745 23-245; P02746 28-253; P02747 29-245); assay: C1q ELISA: antibody coated on the plate, human serum 1:50, chicken anti-human C1q and HRP anti-chicken IgY
T1 construct: Native C1q in diluted human serum
Protocol: In order to determine whether cell-surface binding by anti-IL-21R antibodies is likely to lead to complement-dependent cytotoxicity (CDC), the antibodies were tested for their ability to bind to the complement component C1q in an ELISA. […] Diluted antibodies (100 μl) were coated onto a COSTAR® high-binding ELISA plate (Corning Life Sciences, Lowell, Mass.) overnight at 4° C. Plates were washed 3× with PBS/Tween-20 and blocked with 200 μl of blocking buffer (0.1 M NaPO₄, 0.1 M NaCl, 0.1% gelatin, 0.01% Tween) for 1 hr at RT. Human serum previously determined to contain C1q (Quidel, San Diego, Calif.) was diluted 1:50 in PBS. After 1 hr of blocking, plates were washed and 100 μl of diluted serum was added to each well and incubated for 2 hr at RT on a shaker. Following three washes, 100 μl A of 0.1 μg/ml chicken polyclonal anti-human C1q antibody (AbCam, Cambridge, Mass.) was added to each well and incubated for 1 hr at RT. Plates were again washed and incubated with 100 μA of a rabbit polyclonal antibody to chicken Ig-Y—HRP diluted 1:4000 (AbCam) for 1 hr at RT. Plates were washed and developed with TMB for 5 min, followed by 50 μA of 1 M H₂SO₄ to stop the reaction, and then read at 450 nm.

human soluble IL-4R = biological target: T2, human soluble IL-4R (human, UniProt P24394 26-232, limits assumed); assay: SPR, Ab captured
T2 construct: also called human sIL-4R
Protocol: (§1) The specificity of binding of a subset of transiently expressed anti-IL-21R binding proteins (here antibodies) was tested on a BIACORE™ 2000 surface plasmon resonance instrument. Anti-human-IgG, anti-murine immunoglobulin antibodies, and murine IL-21R-H/F were immobilized onto a research-grade carboxymethyl-dextran chip (CM5) using standard amine coupling. The sensor chip surface was activated with EDC/NHS for 7 min at a flow rate of 20 μl/min. The first flow cell was used as reference surface to correct for bulk refractive index, matrix effects, and nonspecific binding. […] Remaining activated groups were blocked with 1.0 M ethanolamine (pH 8.0). The molecular weights of the anti-human IgG and the anti-murine IgG were both 150 kD, and the molecular weight of the IL-21R monomer was 27 kD.
(§2) Conditioned media containing anti-IL-21R antibodies and antibody controls (murine anti-human IL-2Rβ and murine anti-human IL-4R(R&D Systems, Minneapolis, Minn.); human anti-human IL-13 (Wyeth, Cambridge, Mass.)) were diluted in HBS/EP buffer supplemented with 0.2% bovine serum and injected onto all four flow cells of the BIACORE™ chip, capturing 500-700 (RU) of antibody on the species-appropriate capture antibody. Following a 5 sec washing period, 50 nM solutions of a positive control protein (murine IL-21R-H/F), two human proteins related to IL-21R (human IL-2Rβ and human sIL-4R(R&D Systems)), or an unrelated His/FLAG-tagged protein (human IL-13-H/F) were injected over the captured antibodies on the chip. The association and dissociation phases were monitored for 120 and 180 sec, respectively, followed by two 5 μl injections of glycine (pH 1.5) to regenerate a fully active capturing surface. All binding experiments were done at 25° C. in HBS/EP buffer. Blank and buffer effects were subtracted for each sensorgram using double referencing.

human IL-13-His/FLAG = biological target: T3, human IL-13-His/FLAG (human, UniProt P35225 35-146, limits assumed); assay: SPR, Ab captured
T3 construct: Unrelated His/FLAG-tagged control; also called human IL-13-H/F
T3 sequence (P35225 35-146 limits assumed): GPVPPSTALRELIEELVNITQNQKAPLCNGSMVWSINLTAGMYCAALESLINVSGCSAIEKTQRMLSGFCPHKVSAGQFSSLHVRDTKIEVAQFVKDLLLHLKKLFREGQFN
Protocol: as §1, §2

human IL-2Rβ = biological target: T4, human IL-2Rβ (human, UniProt P14784 27-239); assay: SPR, Ab captured
T4 sequence (looked up): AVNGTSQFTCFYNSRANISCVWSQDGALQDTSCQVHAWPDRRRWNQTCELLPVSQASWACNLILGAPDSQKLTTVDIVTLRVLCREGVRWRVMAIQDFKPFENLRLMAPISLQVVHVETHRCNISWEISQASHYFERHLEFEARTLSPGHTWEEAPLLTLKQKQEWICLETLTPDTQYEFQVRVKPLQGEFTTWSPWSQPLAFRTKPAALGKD
Protocol: as §1, §2

[2] = biological target: T5, rabbit IL-21R-Fc isoform 1 (rabbit); assay: ELISA; competitor 10% conditioned medium containing rabbit IL-21
T5 construct: extracellular domain

[3] = biological target: T6, rabbit IL-21R-Fc isoform 2 (rabbit); assay: as above
T6 construct: extracellular domain

[4] = biological target: rat IL-21R expressed on cells (rat); assay: cell-based or functional assay
[5] = biological target: human IL-21R expressed on cells (human, UniProt Q9HBE5 20-538); assay: cell-based or functional assay
Chain of human IL-21R expressed on cells (Q9HBE5 20-538 limits assumed): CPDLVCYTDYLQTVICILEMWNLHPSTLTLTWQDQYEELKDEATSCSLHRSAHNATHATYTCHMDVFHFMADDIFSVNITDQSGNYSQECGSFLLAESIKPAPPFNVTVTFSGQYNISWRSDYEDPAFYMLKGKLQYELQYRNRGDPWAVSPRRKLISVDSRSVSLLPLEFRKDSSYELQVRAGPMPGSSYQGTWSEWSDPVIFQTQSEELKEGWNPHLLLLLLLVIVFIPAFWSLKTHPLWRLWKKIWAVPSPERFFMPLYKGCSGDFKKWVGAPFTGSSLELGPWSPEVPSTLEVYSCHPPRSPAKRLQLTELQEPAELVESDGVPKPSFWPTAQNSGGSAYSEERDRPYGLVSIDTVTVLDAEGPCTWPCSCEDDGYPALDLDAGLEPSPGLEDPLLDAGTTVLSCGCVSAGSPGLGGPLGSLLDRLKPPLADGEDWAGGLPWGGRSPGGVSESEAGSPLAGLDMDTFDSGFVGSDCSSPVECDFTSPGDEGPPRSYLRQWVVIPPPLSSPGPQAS

[6] = biological target: T7, human IL-21R extracellular domain His-Flag fusion protein (human, UniProt Q9HBE5 20-232); assay: SPR, Ab captured on anti-human IgG, replicate experiment; Table 7B, human IL-21R-His/FLAG
T7 construct: Biotinylated in the HTRF screen; also called hIL-21R-H/F; human IL-21R-H/F
T7 sequence (Q9HBE5 20-232): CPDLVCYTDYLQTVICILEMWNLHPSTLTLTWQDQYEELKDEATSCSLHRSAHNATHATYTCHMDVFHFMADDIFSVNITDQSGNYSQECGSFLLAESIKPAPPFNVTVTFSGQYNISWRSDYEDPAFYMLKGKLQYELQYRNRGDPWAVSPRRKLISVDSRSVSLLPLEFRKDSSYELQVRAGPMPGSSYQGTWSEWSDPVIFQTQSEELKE
Protocol: The kinetics of binding of anti-IL-21R antibodies to human and murine IL-21R-H/F was tested on a BIACORE™ surface plasmon resonance instrument. Anti-human IgG antibodies (Invitrogen Corporation) were immobilized onto a research-grade carboxy-methyl-dextran chip (CM5) using standard amine coupling. The surface was activated with EDC/NHS for 7 min at a flow of 20 μl/min. The first flow cell was used as a reference surface to correct for bulk refractive index, matrix effects, and nonspecific binding. The anti-human-Fc antibody was diluted to 20 μg/ml in 10 mM sodium acetate buffer (pH 5.0), and 2950-3405 resonance units (RU) were captured on each of the four flow cells. Remaining activated groups were blocked with 1.0 M ethanolamine-HCl (pH 8.5).
Anti-IL-21R antibodies were diluted to 0.1-0.2 μg/ml in HBS/EP buffer supplemented with 0.2% bovine serum albumin and loaded onto the BIACORE™ chip. Following a brief washing period, solutions of 0-100 nM human IL-21R-H/F or 10-500 nM murine IL-21R-H/F were injected over the chip at a flow rate of 50 μl/min. The association phase was run for 3 min for human and murine IL-21R kinetics, and the dissociation phase was monitored for 15 min for hIL-21R and for 5 min for mIL-21R, followed by two 10 μl injections and one 30 μl injection of glycine (pH 1.5), to regenerate a fully active capturing surface. […]

T1 sequence (P02745 23-245, chain 1 of 3): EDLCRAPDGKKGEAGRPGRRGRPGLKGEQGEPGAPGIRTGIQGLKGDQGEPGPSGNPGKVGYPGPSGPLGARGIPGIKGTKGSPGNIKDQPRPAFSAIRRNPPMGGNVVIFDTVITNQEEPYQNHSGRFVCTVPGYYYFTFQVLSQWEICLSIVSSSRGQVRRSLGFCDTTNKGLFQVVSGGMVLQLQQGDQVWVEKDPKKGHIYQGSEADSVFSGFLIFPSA
T1 sequence (P02746 28-253, chain 2 of 3): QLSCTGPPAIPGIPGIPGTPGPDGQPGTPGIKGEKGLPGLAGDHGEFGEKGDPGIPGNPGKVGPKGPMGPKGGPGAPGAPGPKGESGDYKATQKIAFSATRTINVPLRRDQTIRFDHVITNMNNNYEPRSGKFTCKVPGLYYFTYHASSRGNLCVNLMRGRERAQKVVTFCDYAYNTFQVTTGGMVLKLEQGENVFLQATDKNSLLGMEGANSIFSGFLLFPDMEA
T1 sequence (P02747 29-245, chain 3 of 3): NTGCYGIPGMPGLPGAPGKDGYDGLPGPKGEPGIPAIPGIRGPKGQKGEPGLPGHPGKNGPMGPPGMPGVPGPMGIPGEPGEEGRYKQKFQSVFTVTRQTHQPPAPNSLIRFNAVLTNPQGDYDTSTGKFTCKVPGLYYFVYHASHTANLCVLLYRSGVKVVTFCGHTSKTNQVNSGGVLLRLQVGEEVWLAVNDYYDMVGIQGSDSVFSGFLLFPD

B1: AbP (antibody, human IgG1, V domains shown)
VH: QVQLQESGPGLVKPSETLSLTCAVSGYSISSGYYWGWIRQPPGKGLEWIGSISHTGNTYYNPPLKSRVTISVDTSKNQFSLKLSSVTAADTAVYYCARGGGISRPEYWGQGTLVTVSS
VL: SSELTQDPAVSVALGQTVRITCQGDSLRTYYASWYQQKPGQAPVLVIYGKHKRPSGIPDRFSGSSSGNTASLTITGAQAEDEADYYCVSRSAKGNPHVLFGGGTQLTVL
notes: CDR3 graft, residue limits derived as for m29; also called VHP/VL20; VHPTM/VL20
B1: no binding [1].

B2: parental 18A5 antibody (antibody, V domains shown)
VH: QVQLQESGPGLVKTSETLSLTCAVSGYSISSGYYWGWIRQPPGKGLEWIGSISHTGNTYYNPPLKSRVTISVDTSKNQFSLKLSSVTAADTAVYYCARGGGISRPEYWGKGTLVTVSS
VL: SSELTQDPPVSVALGQTVTLTCQGDSLRTYYASWYQQKSGQAPILLLYGKHKRPSGIPDRFSGSTSGDTASLTITGAQAEDEADYYCNSRDSSGNPHVLFGGGTQLTVL
notes: also called 18A5 IgG
B2: no binding (tested: 50 nM) (human soluble IL-4R); no binding (tested: 50 nM) (human IL-13-His/FLAG); no binding (tested: 50 nM) (human IL-2Rβ).

B3: AbO (antibody, human IgG1, V domains shown)
VH: QVQLQESGPGLVKPSETLSLTCAVSGYSISSGYYWGWIRQPPGKGLEWIGSISHTGNTYYNPPLKSRVTISVDTSKNQFSLKLSSVTAADTAVYYCARGGGISRPEYWGQGTLVTVSS
VL: SSELTQDPAVSVALGQTVRITCQGDSLRTYYASWYQQKPGQAPVLVIYGKHKRPSGIPDRFSGSSSGNTASLTITGAQAEDEADYYCVTRSAKGNPHVLFGGGTQLTVL
notes: CDR3 graft, residue limits derived as for m29; also called VHP/VL16; VHPTM/VL16
B3: no binding [1].

B4: AbS (antibody, V domains shown)
VH: QVQLQESGPGLVKPSETLSLTCAVSGYSISSGYYWGWIRQPPGKGLEWIGSISHTGNTYYNPPLKSRVTISVDTSKNQFSLKLSSVTAADTAVYYCARGGGISRPEYWGQGTLVTVSS
VL: SSELTQDPAVSVALGQTVRITCQGDSLRTYYASWYQQKPGQAPVLVIYGKHKRPSGIPDRFSGSSSGNTASLTITGAQAEDEADYYCMSRSIWGNPHVLFGGGTQLTVL
notes: CDR3 graft, residue limits derived as for m29; also called VHP/VL6; VHPTM/VL6
In the case of B4, the “fold reduction of binding in the presence of rabbit IL-21” value [2] is reported as about 10 fold, the “fold reduction of binding in the presence of rabbit IL-21” value [3] is reported as about 10 fold and the binding result [1] is reported as “no binding”. The “IC50, rat T cell proliferation, experiment 1” value [4] was 0.036 µM, the “IC50, rat T cell proliferation, experiment 2” value [4] was 0.0271 µM and the “IC50, IL-21-induced CD19 expression in human whole blood” value [5] was 7 ng/mL. For the same binder, the “IC50, IL-21-induced GZMB expression in human whole blood” value [5] was under 3 ng/mL, the “IC50, IL-21-induced IFNG expression in human whole blood” value [5] was 15 ng/mL and the “IC50, IL-21-induced IL2Rα expression in human whole blood” value [5] was 2 ng/mL. For the same binder, the “IC50, IL-21-induced IL6 expression in human whole blood” value [5] was 5 ng/mL and the “IC50, IL-21-induced PRF1 expression in human whole blood” value [5] was 7 ng/mL.

B5: AbU (antibody, human IgG1, V domains shown)
VH: QVQLQESGPGLVKPSETLSLTCAVSGYSISSGYYWGWIRQPPGKGLEWIGSISHTGNTYYNPPLKSRVTISVDTSKNQFSLKLSSVTAADTAVYYCARGGGISRPEYWGQGTLVTVSS
VL: SSELTQDPAVSVALGQTVRITCQGDSLRTYYASWYQQKPGQAPVLVIYGKHKRPSGIPDRFSGSSSGNTASLTITGAQAEDEADYYCTTRSNKGNPHVLFGGGTQLTVL
notes: CDR3 graft, residue limits derived as for m29; also called VHP/VL25; VHPTM/VL25
B5 was tested, and the binding result [1] was “no binding”, the “IC50, rat T cell proliferation, experiment 1” value [4] was 0.173 µM and the “IC50, rat T cell proliferation, experiment 2” value [4] was 0.105 µM.

B6: AbQ (antibody, human IgG1, V domains shown)
VH: QVQLQESGPGLVKPSETLSLTCAVSGYSISSGYYWGWIRQPPGKGLEWIGSISHTGNTYYNPPLKSRVTISVDTSKNQFSLKLSSVTAADTAVYYCARFMGFGRPEYWGQGTLVTVSS
VL: SSELTQDPAVSVALGQTVRITCQGDSLRTYYASWYQQKPGQAPVLVIYGKHKRPSGIPDRFSGSSSGNTASLTITGAQAEDEADYYCVARSVVGNPHVLFGGGTQLTVL
notes: CDR3 graft, residue limits derived as for m29; also called VH3/VL2; VH3DM/VL2
B6 showed a kon [6] of 439000 M⁻¹ s⁻¹.
